T1: FcγRIIb (Pichia pastoris produced) (UniProt P31994 43-217, limits assumed)
T1 construct: also called FcgRIIB; CD32B
T1 sequence (looked up): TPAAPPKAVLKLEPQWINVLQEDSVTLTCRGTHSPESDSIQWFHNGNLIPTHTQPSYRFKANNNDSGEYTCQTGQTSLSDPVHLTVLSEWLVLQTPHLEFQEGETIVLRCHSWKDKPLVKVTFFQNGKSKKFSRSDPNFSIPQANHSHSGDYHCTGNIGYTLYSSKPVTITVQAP


Experiments:
[1] = target: T1, FcγRIIb (Pichia pastoris produced); test: ELISA-type plate assay, FcγR coated, antibody dimerized with AP-conjugated goat anti-human IgG F(ab')2, RFU readout
Description: (§1) Fcγ receptor binding assays were carried out as described (Shields, et al. (2001) J. Biol. Chem. 276:6591-6604) with minor modifications. High protein binding 96-well plates (Corning Costar) were coated with 100 μL per well of Fcγ receptor solutions in PBS at the following concentrations: 1 μg/mL for both FcγRI (R&D Systems) and FcγRIIa (Pichia pastoris produced), 2 μg/mL for FcγRIIb (P. pastoris produced), 0.8 μg/mL for FcγRIIIa-F158, and 0.4 μg/mL for FcγRIIIa-V158 (both P. pastoris produced). All Pichia pastoris produced receptors were expressed and purified as described (Li, et al. (2006) Nature Biotechnology 24:210-215). Monomeric antibody samples added to the FcγRI plate were serially diluted in assay diluent (1×PBS, 1% BSA, and 0.05% Tween20) and 100 μL, per well was added to the plate. Antibody samples prepared for the remaining receptors require a one hour dimerization step with half molar ratio of goat anti-human IgG F(ab′)2 F(ab′)2 that is conjugated with alkaline phosphatase for detection. These dimerized F(ab′)2/antibody complexes were also serially diluted and 100 μL per well were added to the remaining receptor plates and all plates were incubated for one hour at room temperature. FcγRI bound sample antibody was detected using the same goat anti-human IgG F(ab′)2 alkaline phosphatase conjugated F(ab′)2. Sample antibody binding was quantified by measuring excitation at 340 nm and emission at 465 nm after 18 hour incubation with SuperPhos, 4-MUP Fluorescence AP Substrate Detection System (Virolabs).

[2] = target: T2, FcγRIIIa-F158 (Pichia pastoris produced) (UniProt P08637 17-208, limits assumed); test: as above
T2 construct: also called FcγRIIIA LF; FcgRIIIA LF
Description: as §1

FcγRI (R&D Systems) = target: T3, FcγRI (R&D Systems) (UniProt P12314 16-288); test: ELISA-type plate assay, FcγRI coated, monomeric antibody, detected with AP-conjugated goat anti-human IgG F(ab')2, RFU readout
T3 construct: Bought reagent, coated on the plate at 1 µg/mL; also called Fc gamma receptor I; CD64
Description: as §1, with “These dimerized F(ab′)2/antibody complexes were also serially diluted and 100 μL per well were added to the remaining receptor plates and all plates were incubated for one hour at room temperature.” left out

wild-type human PCSK9 = target: T4, wild-type human PCSK9 (human, UniProt Q8NBP7 31-692, limits assumed); test: SPR (Biacore T100), average KD of the two 1F11 runs
T4 construct: also called PCSK9 antigen
Description: The CM5 chip was immobilized on all flowcells with mouse anti-human IgG (Fc specific) according to the Biacore Human Antibody Capture Kit (Cat# BR-1008-39) to ˜7000RU. Anti-PCSK9 antibodies were captured on the chip to ˜500RU followed by analyte injections of wild-type human PCSK9 from 64.1 nM to 2.0 nM. Each flowcell was regenerated between each analyte injection with 3M MgCl for 40 seconds at 10 uL/min. Data was analyzed with Biacore T100 Evaluation Software using the 1:1 binding model using at least 5 point concentration range sensogram.

[3] = target: T2, FcγRIIIa-F158 (Pichia pastoris produced); test: ELISA on plate-coated receptor; antibody dimerized with anti-human IgG F(ab')2-AP; ELISA IC50, YGLY23258 (dimer), Table 6 experiment
Description: as §1, with “These dimerized F(ab′)2/antibody complexes were also serially diluted and 100 μL per well were added to the remaining receptor plates and all plates were incubated for one hour at room temperature.” left out

[4] = target: T5, FcγRIIIa-V158 (Pichia pastoris produced) (UniProt P08637 17-208, limits assumed); test: as above
T5 construct: also called FcγRIIIA LV; FcgRIIIA LV
Description: as §1, with “These dimerized F(ab′)2/antibody complexes were also serially diluted and 100 μL per well were added to the remaining receptor plates and all plates were incubated for one hour at room temperature.” left out

[5] = target: T2, FcγRIIIa-F158 (Pichia pastoris produced); test: fold change of the Table 12 affinities
Description: as §1

[6] = target: T1, FcγRIIb (Pichia pastoris produced); test: FcγR affinity assay 'as described in Example 7', n = 3; printed as Affinity (nM) ± STDEV; Table 12 affinity (nM) assay, n = 3; not the dimer ELISA of Tables 3-7
[7] = target: T2, FcγRIIIa-F158 (Pichia pastoris produced); test: ELISA on plate-coated receptor; antibody dimerized with anti-human IgG F(ab')2-AP; ELISA IC50, YGLY23258 (dimer), Table 7 experiment
Description: as §1, with “These dimerized F(ab′)2/antibody complexes were also serially diluted and 100 μL per well were added to the remaining receptor plates and all plates were incubated for one hour at room temperature.” left out

[8] = target: T5, FcγRIIIa-V158 (Pichia pastoris produced); test: as above
Description: as §1, with “These dimerized F(ab′)2/antibody complexes were also serially diluted and 100 μL per well were added to the remaining receptor plates and all plates were incubated for one hour at room temperature.” left out

[9] = target: T2, FcγRIIIa-F158 (Pichia pastoris produced); test: ELISA on plate-coated receptor; antibody dimerized with anti-human IgG F(ab')2-AP; ELISA IC50, YGLY23258 (dimer), Table 5 experiment
Description: as §1, with “These dimerized F(ab′)2/antibody complexes were also serially diluted and 100 μL per well were added to the remaining receptor plates and all plates were incubated for one hour at room temperature.” left out

[10] = target: T5, FcγRIIIa-V158 (Pichia pastoris produced); test: as above
Description: as §1, with “These dimerized F(ab′)2/antibody complexes were also serially diluted and 100 μL per well were added to the remaining receptor plates and all plates were incubated for one hour at room temperature.” left out

[11] = target: T2, FcγRIIIa-F158 (Pichia pastoris produced); test: ELISA on plate-coated receptor; antibody dimerized with anti-human IgG F(ab')2-AP; ELISA IC50, YGLY23258 (dimer), Table 4 experiment
Description: as §1, with “These dimerized F(ab′)2/antibody complexes were also serially diluted and 100 μL per well were added to the remaining receptor plates and all plates were incubated for one hour at room temperature.” left out

[12] = target: T5, FcγRIIIa-V158 (Pichia pastoris produced); test: as above
Description: as §1, with “These dimerized F(ab′)2/antibody complexes were also serially diluted and 100 μL per well were added to the remaining receptor plates and all plates were incubated for one hour at room temperature.” left out

T2 sequence (P08637 17-208 limits assumed): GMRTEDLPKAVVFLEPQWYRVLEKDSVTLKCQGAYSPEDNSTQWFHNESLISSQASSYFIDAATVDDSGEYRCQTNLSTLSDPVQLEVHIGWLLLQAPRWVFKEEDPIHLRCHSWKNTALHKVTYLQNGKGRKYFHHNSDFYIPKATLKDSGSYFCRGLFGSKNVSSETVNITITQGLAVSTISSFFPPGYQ
T5 sequence (P08637 17-208 F176V limits assumed): as the sequence (P08637 17-208 limits assumed) above, with F160V counted along it
T3 sequence (P12314 16-288 limits assumed): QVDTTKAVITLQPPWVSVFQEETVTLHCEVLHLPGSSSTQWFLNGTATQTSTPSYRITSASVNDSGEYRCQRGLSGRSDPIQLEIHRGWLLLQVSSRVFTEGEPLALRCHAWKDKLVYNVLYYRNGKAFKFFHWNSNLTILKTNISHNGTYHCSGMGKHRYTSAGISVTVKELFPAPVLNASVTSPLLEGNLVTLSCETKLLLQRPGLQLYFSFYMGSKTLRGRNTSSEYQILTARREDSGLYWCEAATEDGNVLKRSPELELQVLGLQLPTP

EC50 (read off the curve) [1] | EC50 (read off the curve) [2] | EC50 (read off the curve) (FcγRI (R&D Systems)) | Kd (wild-type human PCSK9) | IC50 [3] | IC50 [4] | fold change in affinity vs 1F11 IgG1 GS5.0 [5] | Kd [6] | IC50 [7] | IC50 [8] | IC50 [9] | IC50 [10] | IC50 [11] | IC50 [12] | Binder
~0.4 mg/L | ~0.02 mg/L | ~0.08 mg/L | 0.0028 µM |  |  |  |  |  |  |  |  |  |  | 1F11 wildtype (parent) humanized anti-PCSK9 monoclonal IgG1 antibody (antibody, Produced in glycoengineered Pichia pastoris GFI5.0 (strain YGLY21351); also called 1F11 IgG1 GS5.0; YGLY21351) heavy: not shown light: DIQMTQSPSSLSASVGDRVTITCKASQNVGTNVVWYQQKPGKAPKALIHSASYRYSGVPSRFSGSGSGTDFTLTISSLQPEDFATYYCQQYKTYPYTFGQGTKVEIKRTVAAPSVFIFPPSDEQLKSGTASVVCLLNNFYPREAKVQWKVDNALQSGNSQESVTEQDSKDSTYSLSSTLTLSKADYEKHKVYACEVTHQGLSSPVTKSFNRGEC
 |  |  |  | 1.17 mg/L | 0.16 mg/L | 12 fold | 1.69 µM | 1.31 mg/L | 0.16 mg/L | 0.94 mg/L | 0.13 mg/L | 0.69 mg/L | 0.12 mg/L | 1F11 IgG1 F243A/V264A double mutein anti-PCSK9 antibody (antibody, sialylated N-glycans; also called 1F11 DM; YGLY23258) heavy: not shown light: DIQMTQSPSSLSASVGDRVTITCKASQNVGTNVVWYQQKPGKAPKALIHSASYRYSGVPSRFSGSGSGTDFTLTISSLQPEDFATYYCQQYKTYPYTFGQGTKVEIKRTVAAPSVFIFPPSDEQLKSGTASVVCLLNNFYPREAKVQWKVDNALQSGNSQESVTEQDSKDSTYSLSSTLTLSKADYEKHKVYACEVTHQGLSSPVTKSFNRGEC

Reference: patent US20140086916A1 (Merck Sharp & Dohme, published 2014)
